Drawing on article PMC5376495 (ACS combinatorial science, 2017), this text covers Kd for two molecules.

In the assay the target is His-tagged EED (His6X-EED), full length (UniProt O75530 1-441). The assay can be described thus: ITC. (Isothermal titration calorimetry measures the heat released or taken up as one component is titrated into another.)

Where no end group is shown, it is not given here. [ ]: non-standard residue; d: D form. Lys(Me3) = C[N+](C)(C)CCCC[C@H](N)C(=O)O

His-tagged EED (His6X-EED), full length, sequence (O75530 whole entry): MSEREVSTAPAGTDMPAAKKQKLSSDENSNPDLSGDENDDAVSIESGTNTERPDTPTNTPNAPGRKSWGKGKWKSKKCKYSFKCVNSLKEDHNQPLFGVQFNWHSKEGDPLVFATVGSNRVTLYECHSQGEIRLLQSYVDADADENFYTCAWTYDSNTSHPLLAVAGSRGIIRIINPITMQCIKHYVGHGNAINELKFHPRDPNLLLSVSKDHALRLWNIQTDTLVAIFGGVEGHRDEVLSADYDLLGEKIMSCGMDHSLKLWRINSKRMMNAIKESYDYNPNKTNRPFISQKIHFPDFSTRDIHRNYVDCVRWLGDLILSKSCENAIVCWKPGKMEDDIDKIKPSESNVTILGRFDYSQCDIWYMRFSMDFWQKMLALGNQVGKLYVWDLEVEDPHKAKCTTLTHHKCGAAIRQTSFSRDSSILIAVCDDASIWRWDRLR

With QR[Lys(Me3)]FA (peptide, UniProt Q92833 114-118, looked up) [Jarid2_(114–118)K116me3], the Kd (as a rule, a measure of binding affinity in units of concentration) was 8.82 ± 2.06 µM.

B1: UNC5115 (peptide)
chain: XKF
modifications: N-terminal (2S,3aS,7aS)-octahydro-1H-indole cap; methyl-isopropyl lysine (Kme,iPr); C-terminal piperidinyl ring in place of leucine
In turn, B1 registered a Kd of 1.14 ± 0.14 µM.
